Source: article PMC2138052

Target: Rabbit muscle F-actin (rabbit) (UniProt P68135)
Experiment: co-sedimentation

Substance: Recombinant human cofilin (from UniProt P23528 1-166) (natural protein)
- stoichiometry N (cofilin/actin): 1.16
